Measured values reported in paper PMC7232456, “Loxoscelism: Advances and Challenges in the Design of Antibody Fragments with Therapeutic Potential” (Toxins, 2020).
Changes are numbered by the printed parent chain.

B1: scFv15hLi7m (scFv, V domains shown)
VH: QVQLQQSGAEVKKPGASVKVSCKASGYAFSSSWMNWVRQAPGQGLEWMGRIYPGDGDTNYNQKFQGRVTMTRDTSTSTVYMELSSLRSEDTAVYFCARWTYGYSKYYYFDDWGQGTLVTVSS
VL: DIQMTQSPSSLSASVGDRVTITCRASQSLLWNVNENNYLSWYQQKQGKAPKLLIYGASILESGVPSRFSGSGSGTDFTLTISSLQPEDFATYYCQHNHGSFLPYTFGQGTKLEIK
notes: also called second generation of the humanized scFv; monomeric scFv
B2: scFv15hLi7 (scFv, V domains shown)
VH: B1 VH with F95Y
VL: B1 VL with Q46P
notes: also called humanized scFv; first generation of the humanized scFv
B3: scFv5hLi7m (scFv, V domains shown)
VH: B1 VH
VL: B1 VL
notes: also called (scFv5hLi7m)2; dimeric scFv5hLi7m

Columns and labels:
[1] = target: T1, recombinant SMase D LiD1 from L. intermedia (Loxosceles intermedia, UniProt P0CE81); assay: ELISA; settings: both partners purified
T1 construct: also called rLiD1; recombinant sphingomyelinase D
T1 sequence (P0CE81 27-306): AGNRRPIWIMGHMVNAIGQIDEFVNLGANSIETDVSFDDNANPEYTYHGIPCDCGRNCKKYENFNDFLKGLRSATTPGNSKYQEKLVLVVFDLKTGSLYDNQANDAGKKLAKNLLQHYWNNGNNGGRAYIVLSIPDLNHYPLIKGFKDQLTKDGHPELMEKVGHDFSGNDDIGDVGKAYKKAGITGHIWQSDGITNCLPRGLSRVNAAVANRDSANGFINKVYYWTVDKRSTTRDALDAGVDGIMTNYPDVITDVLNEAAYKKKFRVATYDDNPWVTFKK

[2] = target: T1, recombinant SMase D LiD1 from L. …; assay: SPR; settings: both partners purified

Binder	binding result [1]	Kd [2] [nM]	koff [2] [s⁻¹]	kon [2] [M⁻¹ s⁻¹]
B1	binds	–	–	–
B2	–	56.6	0.0103	182000
B3	binds	–	–	–
